Molecular target: the molecule itself
Experiment: cryo-EM structure

B1: Escherichia coli mechanosensitive channel of small conductance MscS, wild type (natural protein, E. coli, UniProt P0C0S1 1-286, looked up)
chain: MEDLNVVDSINGAGSWLVANQALLLSYAVNIVAALAIIIVGLIIARMISNAVNRLMISRKIDATVADFLSALVRYGIIAFTLIAALGRVGVQTASVIAVLGAAGLAVGLALQGSLSNLAAGVLLVMFRPFRAGEYVDLGGVAGTVLSVQIFSTTMRTADGKIIVIPNGKIIAGNIINFSREPVRRNEFIIGVAYDSDIDQVKQILTNIIQSEDRILKDREMTVRLNELGASSINFVVRVWSNSGDLQNVYWDVLERIKREFDAAGISFPYPQMDVNFKRVKEDKAA
- stoichiometry N: 7
